± gives the uncertainty stated by the source.
Experiment: amyloid nucleation score (Sup35N fusion, yeast selection) (log enrichment); library NNK1; higher = more nucleation; inactive = no reads after selection
Outline: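 Plasmid inserts were Illumina-sequenced at input and output from psi-negative yeast expressing Sup35N fused to peptides of 20 random codons. The yeast were induced with 100 μM copper sulfate for 24 hours and grown 7 days at 30°C on medium lacking adenine and uracil, and sequences with under 100 input reads were excluded. Nucleation score is the DiMSum log enrichment of output over input reads, centred on the mode score of non-aggregating sequences.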

| Substance | amyloid nucleation score |
| --- | --- |
| ILLYVICQVVTTV | 1.64 ± 0.34 |
| PQRRGHIRIDRILSSTWTVA | 0.197 ± 0.39 |
| VKKGILLSVLDASFRTSVYE | -0.424 ± 0.88 |
| LEGVFAAALSNKMIRYIRDV | 1.19 ± 0.53 |
| SLLCLCYV | 7.599 ± 0.059 |
| WLSHGIEVVVHKTSSVSYWR | -0.796 ± 1.1 |
| RHFRMGRHRFEGWVLTGASG | 0.194 ± 0.38 |
| GSVSVSQQS | -1.4 ± 2.4 |
| HSSKYRRFVSTTVTIVSVSR | 4.01 ± 0.09 |
| RFIYE | -0.543 ± 0.82 |
| RFFNTRSGKSWPLKYLTEFF | 0.042 ± 0.34 |
| SLLRRA | 0.575 ± 0.71 |
| WGCDLEAALY | 0.016 ± 1.7 |
| RNDTSDVYGSSGRSNRP | 0.007 ± 0.37 |
| GYGFFWCDCYRYDRGSRWTG | 1.93 ± 0.15 |
| LNCRGVLDRTKSRVSHNNES | 3.38 ± 0.18 |
| QLTSACWYAVTGGGSTAGEG | -0.965 ± 1.4 |
| TPLFRGFIMLQPRLRCDKFA | 0.013 ± 0.31 |
| THFMYIVELERGRLFGCSVR | 0.115 ± 1 |
| VLVHKDSG | -0.852 ± 0.71 |
| APLALSGRVCFWSWFCPLFV | 5.76 ± 0.084 |
| CCYNFYDSGANCHLFFVSFR | -0.817 ± 1.7 |
| NIKDRILYNVYMRGMCIYCL | 6.137 ± 0.053 |
| GSWFYIFRV | 0.089 ± 0.34 |
| SHPFTFSCAHILLWMSLRRF | 0.276 ± 0.45 |
| LLYISSTVM | 1.07 ± 0.38 |

| Substance | amyloid nucleation score |
| --- | --- |
| TVIGSSRGAPLIIKSGFIIE | 4.25 ± 0.056 |
| TSTYWQVDEAV | -0.325 ± 0.52 |
| DRVSCNEEFQRKCIFTVIRR | 1.19 ± 0.63 |
| VLGDSARVCSGDGV | 0.494 ± 0.74 |
| GMLNIDSVPDTYGLSQPVVP | -0.498 ± 0.57 |
| RWLETVGECCCESARVFCA | -0.45 ± 0.59 |
| AIIDMDMSFRSGGCTNGVDV | 1.06 ± 0.32 |
| TIDGSPIGMTTWPVPSFKFS | 0.742 ± 0.56 |
| CRDNCCPLVVYW | 0.531 ± 0.33 |
| SRVFLCCAMCLRRNSGYGR | -0.362 ± 0.4 |
| KAQGPSFYEYRWITLNYLGY | 1.07 ± 0.15 |
| GPTCDLRFAFNPHVTYGGHG | 1.29 ± 0.64 |
| RFILPVVGSSHLINSLADSL | -0.8 ± 1.4 |
| SNSFRLGGSNNYPMSSAPGL | -1.74 ± 2.4 |
| YTANYGILVFAVC | -0.702 ± 1.4 |
| SETFEHRLRD | -0.437 ± 0.28 |
| GTIENFHGVTN | 0.413 ± 0.49 |
| IWMFISAVASFNITRSWCYL | 2.02 ± 0.13 |
| VFSLYSTQKLSRRVIGMLGL | 0.725 ± 0.81 |
| CYTHPVMSITLNSI | 2.36 ± 0.15 |
| GMTCSQGSEWMLERGNRTEV | -0.294 ± 0.66 |
| MRDTFFLDRMQITLCSW | 0.306 ± 0.33 |
| IRDMFVSGSQFFLKHMLSRG | 0.436 ± 0.78 |
| MVIRYFCQESA | -0.799 ± 1.1 |
| GIRCISLRKGHAGW | -1.65 ± 2.4 |
| FSYCAFHIMNQWVVFNYGGC | 6.421 ± 0.06 |

| Substance | amyloid nucleation score |
| --- | --- |
| IVWSYSRTIYLNFI | 0.873 ± 0.68 |
| IFHGRNYSFSS | -0.422 ± 0.45 |
| FSTHSIWSLRVSNSVSLFNE | 0.178 ± 0.66 |
| FFASCIRYDSRNCIGNLQLG | 0.149 ± 0.64 |
| FSMSILENRYTTFELSGAYQ | -0.722 ± 0.66 |
| HMNSVVMPRWPTLNGELGSR | -0.179 ± 0.4 |
| LAKGGPL | -0.813 ± 0.54 |
| IDHSNTIFMSQCRRLSVPE | -0.889 ± 1.7 |
| SHLLGINCCCA | 0.131 ± 0.85 |
| MGHVLGVYKSP | 1.2 ± 0.46 |
| PITILVVFNLQKY | 6.242 ± 0.046 |
| VVSRIDPCTWHCAMIKGHRY | -0.332 ± 1.1 |
| SSCSYLGRDRMCFWPYFLTT | 0.016 ± 0.39 |
| FQYTACIN | 1.08 ± 0.57 |
| YRRDYGPKSVDWRPYVVEVR | 0.359 ± 0.64 |
| RRLFMGPI | 0.802 ± 1 |
| SPAFQWHLYPSA | 0.592 ± 0.87 |
| SFVCCFRLPWMGGTKNPMHV | 3.55 ± 0.19 |
| PFYLDSGADVTEPGHLGFYG | 0.158 ± 0.37 |
| FCKWCRFDDCTRGYIYFVRR | 1.76 ± 0.37 |
| VIAMDNDRYFGSVFSYIRMN | -0.147 ± 0.29 |
| SGHTVVMVMNMCCVSFHLRC | 6.562 ± 0.048 |
| GVKSQTMLGLQRSAAFILCY | -0.127 ± 0.55 |
| LRRVMFHRGMCHSVVRNGFG | -1.48 ± 1.6 |
| KTCFHNNLPKIGLPHHLHNG | -1.32 ± 1.9 |
| RNFCSSEGPSRHERLCNTKR | -0.542 ± 0.68 |

| Substance | amyloid nucleation score |
| --- | --- |
| SLRLARNGYIYAICRFLCYS | -1.15 ± 2.7 |
| GGILPLTCSFVRTSIDQIGG | -0.154 ± 0.41 |
| SRNRLFVRRVRLANSLSFNA | -0.226 ± 1.1 |
| SQCSSLIHAIEMDRFVF | 0.276 ± 0.23 |
| LIFNQLWWRKSMCLQVRPGQ | -1.25 ± 0.92 |
| YSVLCIMRTLHAEIWFTGGI | -0.023 ± 1.4 |
| FKEMIAWPWLESSSGEFTIV | 0.645 ± 0.62 |
| SSLRPRKCCWRKTRRLSKGG | 0.441 ± 0.67 |
| DRCSY | -0.431 ± 0.39 |
| LHRSQMIFMCLSVTYSAK | -0.209 ± 0.47 |
| RVYRYLPYRYERCLDL | -0.504 ± 0.93 |
| IWMGCYVNVARSK | 1.03 ± 0.22 |
| MQWWVGYAIITEN | -0.119 ± 0.56 |
| FESRRVKNGID | inactive |
| FYCMLSSSSNFPSGNDRAYD | -0.341 ± 0.5 |
| YTFLYSPTHCPRENHPNSVL | 0.211 ± 0.61 |
| NVQGSHSCSISCYIMPGRAM | 5.56 ± 0.077 |
| IRAQGHNYWALMRVAEWVVG | 1.75 ± 0.42 |
| KFCLDLSYLFSSRTVMYEIV | -0.24 ± 0.26 |
| FHNVFCFSYFT | 7.21 ± 0.078 |
| PCPSINWLMIINNR | 7.743 ± 0.051 |
| ESSAIRNGEC | 0.252 ± 0.52 |
| IGYRCIVLS | 1.24 ± 0.45 |
| NLTRSVHVMRQVIVQHFIGN | 0.424 ± 0.72 |
| MVLTFAV | -1.36 ± 2.4 |
| NTYGAGSLGITWQQVCLTYE | 0.767 ± 0.62 |

| Substance | amyloid nucleation score |
| --- | --- |
| KIICFRLKSPLVWKMYDKTG | -0.699 ± 0.32 |
| WLVCNEGSIMDLASGLGLIR | 0.561 ± 0.66 |
| SFTVVGLKLTIVRDNNS | 3.86 ± 0.12 |
| LHAGHSSLNALAYSFRLHDR | 0.775 ± 0.52 |
| FGMKMGMMRVV | -0.688 ± 1.2 |
| NPVPGARKNRVHAGSKSDTG | 0.075 ± 0.68 |
| FVLWIY | 0.14 ± 0.47 |
| KCLTMDFLR | -1.12 ± 1.1 |
| PWSALTASGTKISSSKSRLG | -0.331 ± 0.93 |
| GPVVLRTGLLVRFTYHIGRE | 1.15 ± 0.24 |
| VSYSGQSLICYWVLEASFVV | -0.05 ± 0.31 |
| RRHWTVMVMNIPVGMFIVIR | 0.155 ± 0.27 |
| WFASYCISFN | 2.27 ± 0.21 |
| VNQDAGDMKSVRKRAMTRLC | 1.06 ± 0.56 |
| FSCFLMEISKGRGH | 4.18 ± 0.11 |
| INVPIWGNLQDWLVI | -0.924 ± 0.52 |
| SNNHQFFCDTFDIGWWEVGR | -1.63 ± 2.4 |
| SNSSVSW | 0.717 ± 0.57 |
| NRIMY | -0.09 ± 0.2 |
| STKSTQDSSSDFIAVCGKRE | 0.925 ± 1.1 |
| NEGIMPLVNHSKQEEPGVYR | 0.753 ± 0.57 |
| DSWYRLLLARACNISHVRGR | -0.527 ± 0.48 |
| ILELYYYASRFLN | 0.45 ± 0.57 |
| SLSQG | 0.441 ± 0.93 |

Reference: the supplement of paper PMC12042874
